These results are taken from FireProtDB (doi:10.1074/jbc.m102741200).

Sequences and labels used below:
B1: Alpha-amylase, P29957 (parent)
chain: MKLNKIITTAGLSLGLLLPSIATATPTTFVHLFEWNWQDVAQECEQYLGPKGYAAVQVSPPNEHITGSQWWTRYQPVSYELQSRGGNRAQFIDMVNRCSAAGVDIYVDTLINHMAAGSGTGTAGNSFGNKSFPIYSPQDFHESCTINNSDYGNDRYRVQNCELVGLADLDTASNYVQNTIAAYINDLQAIGVKGFRFDASKHVAASDIQSLMAKVNGSPVVFQEVIDQGGEAVGASEYLSTGLVTEFKYSTELGNTFRNGSLAWLSNFGEGWGFMPSSSAVVFVDNHDNQRGHGGAGNVITFEDGRLYDLANVFMLAYPYGYPKVMSSYDFHGDTDAGGPNVPVHNNGNLECFASNWKCEHRWSYIAGGVDFRNNTADNWAVTNWWDNTNNQISFGRGSSGHMAINKEDSTLTATVQTDMASGQYCNVLKGELSADAKSCSGEVITVNSDGTINLNIGAWDAMAIHKNAKLNTSSASSTESDWQRTVIFINAQTQSGQDMFIRGGIDHAYANANLGRNCQTSNFECAMPIRHNNLKNVTTSPWKANDNYLDWYGIENGQSSEAEGSATDWTTNVWPAGWGAEKTVNTDGFGVTPLNIWGEHYWMLDVDMDCSKAVNGWFELKAFIKNGQGWETAIAQDNAPYTSTNHMAQCGKINKFEFNNSGVVIRSF

Values joined by “and” are separate entries in the source; they are usually repeats but may differ in a detail not shown here. Identical values can stand only once.

The first data set covers variants of B1. The following applies: Pseudoalteromonas haloplanktis; pH 7.2; Thermal; DSC; MOPS 30 mM; NaCl 50 mM; reversible: yes(76 %); structure 1AQH; whole UniProt chain shown.
The Tm is the temperature at the midpoint of the melting transition. Regarding E303W, the Tm was 41.4 °C, the “unfolding enthalpy (calorimetric)” value was 186 kcal/mol and the “unfolding enthalpy (van 't Hoff)” value worked out at 234 kcal/mol.

Still in this data set, the particulars now being: Pseudoalteromonas haloplanktis; pH 7.2; Thermal; DSC; MOPS 30 mM; NaCl 50 mM; reversible: yes(25 %); structure 1AQH; whole UniProt chain shown.
N36R: the Tm turned out to be 43.3 °C, the “unfolding enthalpy (calorimetric)” value is 193 kcal/mol and the “unfolding enthalpy (van 't Hoff)” value amounted to 231 kcal/mol.

The same data set, now with this note: Pseudoalteromonas haloplanktis; pH 7.2; Thermal; DSC; MOPS 30 mM; NaCl 50 mM; reversible: yes(81 %); structure 1AQH; whole UniProt chain shown.
Consider L243R, for which the Tm came out at 42.5 °C, the “unfolding enthalpy (calorimetric)” value was 217 kcal/mol and the “unfolding enthalpy (van 't Hoff)” value worked out at 187 kcal/mol.

The same data set, now with this note: Pseudoalteromonas haloplanktis; pH 7.2; Thermal; DSC; MOPS 30 mM; NaCl 50 mM; transition: 3; reversible: yes(30 %); structure 1AQH; whole UniProt chain shown.
N312V: the “unfolding enthalpy (calorimetric)” value is 88 kcal/mol and 59 kcal/mol; the “unfolding enthalpy (van 't Hoff)” value was 133 kcal/mol and 114 kcal/mol.

Still in this data set, the particulars now being: Pseudoalteromonas haloplanktis; pH 7.2; Thermal; DSC; MOPS 30 mM; NaCl 50 mM; transition: 3; reversible: yes(85 %); structure 1AQH; whole UniProt chain shown.
Turning to T256V, the Tm is 42.7 °C and 45.7 °C; the “unfolding enthalpy (calorimetric)” value is 102 kcal/mol and 104 kcal/mol; the “unfolding enthalpy (van 't Hoff)” value was 114 kcal/mol and 202 kcal/mol.

Still in this data set, the particulars now being: Pseudoalteromonas haloplanktis; pH 7.2; Thermal; DSC; MOPS 30 mM; NaCl 50 mM; reversible: yes(96 %); structure 1AQH; whole UniProt chain shown.
On to R88E, for which the Tm was 42.6 °C, the “unfolding enthalpy (calorimetric)” value was determined as 236 kcal/mol and the “unfolding enthalpy (van 't Hoff)” value came to 112 kcal/mol.

The data set is the same for the next values; noted with them: Pseudoalteromonas haloplanktis; pH 7.2; Thermal; DSC; MOPS 30 mM; NaCl 50 mM; reversible: yes(91 %); structure 1AQH; whole UniProt chain shown.
As to N174D V220F, the Tm is 46.4 °C, the “unfolding enthalpy (calorimetric)” value is 272 kcal/mol and the “unfolding enthalpy (van 't Hoff)” value was 271 kcal/mol.

Staying with this data set, now noted: Pseudoalteromonas haloplanktis; pH 7.2; Thermal; DSC; MOPS 30 mM; NaCl 50 mM; reversible: yes(60 %); structure 1AQH; whole UniProt chain shown.
Consider V220F, for which the Tm came out at 45.4 °C, the “unfolding enthalpy (calorimetric)” value is 234 kcal/mol and the “unfolding enthalpy (van 't Hoff)” value stood at 296 kcal/mol.

Still in this data set, the particulars now being: Pseudoalteromonas haloplanktis; pH 7.2; Thermal; DSC; MOPS 30 mM; NaCl 50 mM; reversible: yes(97 %); structure 1AQH; whole UniProt chain shown.
As for N174D, the melting temperature (Tm) was found to be 44.8 °C, the “unfolding enthalpy (calorimetric)” value worked out at 271 kcal/mol and the “unfolding enthalpy (van 't Hoff)” value amounted to 240 kcal/mol.

Still in this data set, the particulars now being: Pseudoalteromonas haloplanktis; pH 7.2; Thermal; DSC; MOPS 30 mM; NaCl 50 mM; transition: 3; reversible: yes(95 %); structure 1AQH; whole UniProt chain shown.
As to M403V, the “unfolding enthalpy (calorimetric)” value is 127 kcal/mol and 84 kcal/mol; the “unfolding enthalpy (van 't Hoff)” value is 96 kcal/mol and 137 kcal/mol.

Staying with this data set, now noted: Pseudoalteromonas haloplanktis; pH 7.2; Thermal; DSC; MOPS 30 mM; NaCl 50 mM; transition: 3; reversible: yes(64 %); structure 1AQH; whole UniProt chain shown.
On to Q188I, for which the Tm is 42.7 °C and 45.2 °C; the “unfolding enthalpy (calorimetric)” value was 87 kcal/mol and 117 kcal/mol; the “unfolding enthalpy (van 't Hoff)” value was 117 kcal/mol and 240 kcal/mol.

Staying with this data set, now noted: Pseudoalteromonas haloplanktis; pH 7.2; Thermal; DSC; MOPS 30 mM; NaCl 50 mM; transition: 3; reversible: yes(51 %); structure 1AQH; whole UniProt chain shown.
Consider Q188I V220F, for which the Tm stood at 44.7 °C, the “unfolding enthalpy (calorimetric)” value came to 83 kcal/mol and the “unfolding enthalpy (van 't Hoff)” value worked out at 121 kcal/mol.
